# Measured values published in publication PMC2120815.
# Biological target: cytoplasmic dynein intermediate chain (Xenopus laevis (endogenous in egg extract))
# Assay: co-IP
substance,measurement,value
cytoplasmic dynein heavy chain (natural protein),interphase/metaphase ratio of the amount brought down,1.08
